“And” between values parts separate entries of the source, which are not always exact repeats. Equal entries are not always repeated.
Legend:
human CCR8 [1] = molecular target: T1, human CCR8 (human, UniProt P51685 1-355); assay: flow cytometry, hCCR8 transfected CHOK1 cells
T1 construct: also called hCCR8; hCCR8_P51685
Procedure: (§1) The same staining protocol was applied on human CCR8 transfected CHO cell line versus wild type CHO cell line, cutaneous T cell lymphoma HUT78 cell line and human activated T cell model.
(§2) Briefly, 1·10⁵ cells per well in a 96 well plate were incubated with a dilution of unconjugated anti-CCR8 mAb at 10 μg/mL then diluted at 1/3.33, 4 dilution points (during 30 min at 4° C.). In human activated T cells model, prior to mAb incubation, cells were first incubated with 200 nM of hCCL1 (R&D Systems, Minneapolis, MN, USA) or buffer PBS (Invitrogen by Thermofisher Scientific, Illkirch-Graffenstaden, France) supplemented by 2% Fetal Bovine Serum (Invitrogen by Thermofisher Scientific, Illkirch-Graffenstaden, France) and 2 mM EDTA (Invitrogen by Thermofisher Scientific, Illkirch-Graffenstaden, France) during 1 hour at 4° C. To determine EC50 value, 8 concentrations of anti-CCR8 mAb were tested. Unbound antibodies were washed away with PBS (Invitrogen by Thermofisher Scientific, Illkirch-Graffenstaden, France) supplemented by 2% Fetal Bovine Serum (Invitrogen by Thermofisher Scientific, Illkirch-Graffenstaden, France) and 2 mM EDTA (Invitrogen by Thermofisher Scientific, Illkirch-Graffenstaden, France). Subsequently, cells are centrifuged (5 min at 400 g) and bound antibody is detected with F(ab′)₂-Goat anti-Mouse IgG (H+L) Cross-Adsorbed Secondary Antibody, Alexa Fluor 488 (dilution 1/500) (Invitrogen by Thermofisher Scientific, Illkirch-Graffenstaden, France) or with F(ab′)₂-Goat anti-Human IgG Fc Secondary Antibody, PE (Invitrogen by Thermofisher Scientific, Illkirch-Graffenstaden, France) (dilution 1/1000) at 4° C. for 30 min. Detection reagent is washed away and cells are centrifuged (5 min at 400 g) and resuspended in 30 μL PBS. Bound detection antibody is quantified on a MacsQuant16 (Miltenyi, Gladbach, Germany) (B1 or B2 channel, 5000 events per acquisition). During the experiment, the respective isotype mAb controls (mouse IgG1, mouse IgG2a, mouse IgG2b, mouse IgG3 or human IgG1) (Biolegend, Amsterdam, The Netherlands) are included to exclude any unspecific binding events.

human CCR8 [2] = molecular target: T1, human CCR8; assay: cell-based or functional assay
human CCR8 [3] = molecular target: T1, human CCR8; assay: cell-based or functional assay; remark: listed apart in the source
human CCR8 [4] = molecular target: T1, human CCR8; assay: cell-based or functional assay; remark: listed apart in the source
human CCR8 [5] = molecular target: T1, human CCR8; assay: flow cytometry, inhibition of hCCL1-AF647 binding to hCCR8 CHO cells
Procedure: The hCCR8 transfected CHO cell line was dispatched at a density of 1·10⁵ per well in a 96-well plate. Cells were incubated for 30 min at 4° C. with or without anti-CCR8 mAb tested at 10 μg/mL then diluted at 1/3. Unbound antibodies were washed away with PBS (Gibco, Villebon-sur-Yvette, France) supplemented by 2% Fetal Bovine Serum (Invitrogen by Thermofisher Scientific, Illkirch-Graffenstaden, France) and 2 mM EDTA. […] After washing unbound ligands, CCL1 bound detection is quantified on a MacsQuant16 (Miltenyi, Gladbach, Germany) (R1 channel, 5 000 events per acquisition).
For IC₅₀ determination, a concentration response curve is performed using 8 concentrations of mAb. Curves are fitted and IC₅₀ of CCL1 binding blocking activity is calculated using the sigmoidal dose-response (variable slope) model on GraphPad Prism 9 (GraphPad Software, San Diego, CA, USA).

human CCR8 [6] = molecular target: T1, human CCR8; assay: cell-based or functional assay; remark: listed apart in the source
hCCR8 SNAP-tag [7] = molecular target: T2, hCCR8 SNAP-tag (human, UniProt P51685 1-355, SNAP-tag labelled with Lumi4-Terbium); assay: HTRF Tag-lite, inhibition of hCCL1-AF647 binding to SNAP-tag hCCR8 on HEK-293
T2 construct: also called human CCR8 engineered with a SNAP-tag at the N-terminus; not shown: SNAP-tag at the N-terminus
Procedure: The inhibition of CCL1 binding to hCCR8 was evaluated with the Tag-Lite® technology from Cisbio (Revvity). Human CCR8 is engineered with a SNAP-tag at the N-terminus of the GPCR. hCCR8 SNAP-tag is transiently transfected on HEK-293 cell line using FuGene® (Promega, Madison, WI, USA). 48 hours after transfection, cells are labeled with the substrate Lumi4-Terbium® (Cisbio, Codolet, France) which covalently reacts with the SNAP-tag, for 1 h at 37° C. […] The Kd is previously obtained in a saturation binding assay on the same cells. […] The plate is next incubated at 21° C. for 2 h. Detection of HTRF signal is performed on the multiplate reader EnVision (PerkinElmer, Waltham, MA, USA). The HTRF (665/620) ratio is calculated by EnVision software, the data exported are considered as the total binding. The specific binding is calculated then by subtracting the non-specific signal from the total binding. The Ki and IC₅₀are calculated using the “One site—Fit Ki” and “One site—FitlogIC50” from GraphPad Prism 9 (Graphpad Software, San Diego, CA, USA), respectively.

human CCR8 [8] = molecular target: T1, human CCR8; assay: cell-based or functional assay; remark: listed apart in the source
[9] = molecular target: pm6, modified CCR8 related peptide (human, sulfated tyrosines at Y16 and Y17); assay: ELISA on coated CCR8 peptide (500 ng/mL), OD [cont.]
Procedure: (§3) The specific binding properties of antibodies were evaluated by ELISA with coated CCR8 related peptides (500 ng/mL) in carbonate/bicarbonate buffer. Different peptides were used as described in Table 1 (see Example 1). Each anti-CCR8 mAb was tested at 1 μg/mL then diluted at 1/10. After an incubation at room temperature during 90 min, unbound mAbs were removed by washings. […] After washings, 3,3′,5,5′-tetramethylbenzidine (TMB) (Interchim, Montlugon, France) was added for 15 min. Then the optical density (OD) was determined by using a multiplate reader (Tecan, Lyon, France) and correlated with mAb reactivity on the panel of coated peptides.

[10] = molecular target: T3, pwt1, unmodified CCR8 related peptide (human, none (non-sulfated Y15, Y16, Y17)); assay: as above
T3 construct: First 34 amino acids of human CCR8, synthetic; also called unmodified peptide
Procedure: as §3

[11] = molecular target: pm3, modified CCR8 related peptide (human, sulfated tyrosine at Y17); assay: as above
Procedure: as §3

[12] = molecular target: pm5, modified CCR8 related peptide (human, sulfated tyrosines at Y15 and Y17); assay: as above
Procedure: as §3

[13] = molecular target: pm8, modified CCR8 related peptide (human, sulfated tyrosines at Y15, Y16 and Y17); assay: as above
Procedure: as §3

[14] = molecular target: pm1, modified CCR8 related peptide (human, sulfated tyrosine at Y15); assay: as above
Procedure: as §3

[15] = molecular target: pm2, modified CCR8 related peptide (human, sulfated tyrosine at Y16); assay: as above
Procedure: as §3

[16] = molecular target: pm4, modified CCR8 related peptide (human, sulfated tyrosines at Y15 and Y16); assay: as above
Procedure: as §3

hCCR8 SNAP-tag [17] = molecular target: T2, hCCR8 SNAP-tag; assay: cell-based or functional assay
human CCR8 [18] = molecular target: T1, human CCR8; assay: flow cytometry, HUT78 cells (endogenous CCR8)
Procedure: as §1, §2
EC50 values were determined via nonlinear fit “log(agonist)vs.response−Variable slope (four parameters)” function of Graphpad prism. EC50 values were not constantly determined in the same experiments.

Sequence of pm5, modified CCR8 related peptide (human, sulfated tyrosines at Y15 and Y17) (peptide, as listed by the source): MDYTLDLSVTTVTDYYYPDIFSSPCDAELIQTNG
Sequence of pm2, modified CCR8 related peptide (human, sulfated tyrosine at Y16) (peptide, as listed by the source): as above
T3 sequence (peptide, as listed by the source): as above
Sequence of pm6, modified CCR8 related peptide (human, sulfated tyrosines at Y16 and Y17) (peptide, as listed by the source): as above
Sequence of pm3, modified CCR8 related peptide (human, sulfated tyrosine at Y17) (peptide, as listed by the source): as above
Sequence of pm1, modified CCR8 related peptide (human, sulfated tyrosine at Y15) (peptide, as listed by the source): as above
Sequence of pm4, modified CCR8 related peptide (human, sulfated tyrosines at Y15 and Y16) (peptide, as listed by the source): as above
Sequence of pm8, modified CCR8 related peptide (human, sulfated tyrosines at Y15, Y16 and Y17) (peptide, as listed by the source): as above

hCCL1 (100 nM) residual response in %, Protocol #2, mAb 0.08 µg/mL (0.53 nM) (human CCR8 [3]) | hCCL1 (100 nM) residual response in %, Protocol #2, mAb 0.4 µg/mL (2.67 nM) (human CCR8 [3]) | hCCL1 (100 nM) residual response in %, Protocol #2, mAb 10 µg/mL (66.7 nM) (human CCR8 [3]) | hCCL1 (100 nM) residual response in %, Protocol #3, mAb 0.05 µg/mL (0.33 nM) (human CCR8 [3]) | hCCL1 (100 nM) residual response in %, Protocol #3, mAb 0.5 µg/mL (3.33 nM) (human CCR8 [3]) | hCCL1 (100 nM) residual response in %, Protocol #3, mAb 5 µg/mL (33.3 nM) (human CCR8 [3]) | IC50, CCL1 induced hCCR8 Gi2 signaling (BRET, HEK-293) (human CCR8 [6]) | IC50 (hCCR8 SNAP-tag [7]) | Ki (hCCR8 SNAP-tag [7]) | binding result [9] | binding result [10] | binding result [11] | binding result [12] | binding result [13] | binding result [14] | binding result [15] | binding result [16] | % of internalization at 1 µg/ml (CCL1 at 300 nM = 100%), HTRF (hCCR8 SNAP-tag [17]) | % of internalization at 10 µg/ml (CCL1 at 300 nM = 100%), HTRF (hCCR8 SNAP-tag [17]) | % of labelled cells (human CCR8 [18]) | Binder | other results
97% | 96% | 84% | 96% | 81% | 73% | 0.092 µg/mL and 0.616 nM |  |  |  |  |  |  |  |  |  |  |  |  |  | anti-CCR8 mAb 2-11 (antibody, V domains shown) VH: EVQLQQSGPELVKPGASVKISCKASVYSFTGSYMHWVKQSHVKSLEWIGRINPYNGATSYNQNFKDKASLTVDKSSSTAYMELHSLTSEDSAVYYCATTLLRLLDYWGQGTTLTVSS VL: DIVMTQAAFSNPVTLGTSASISCRSSKSLLHSNGITYLYWYLQKPGQSPQLLIYQMSNLASGVPDRFSSSGSGTDFTLRISRVEAEDVGVYYCAQNLELPWTFGGGTKLEIK | % positive cells (human CCR8 [1]): 34.7%; MFI fold change to isotype ctrl (human CCR8 [1]): 2.34 fold; IC50, CCL1 induced hCCR8 Gi2 signaling (BRET) at pH 6.5 (human CCR8 [2]): 0.162 µg/ml and 1.08 nM; IC50, CCL1 induced hCCR8 Gi2 signaling (BRET) at pH 7.4 (human CCR8 [2]): 0.152 µg/ml and 1.01 nM; Top plateau values in presence of 5 µg/mL mAb (% of hCCL1 (100 nM)), protocol #3 (human CCR8 [4]): 292%; IC50 (human CCR8 [5]): 6.41 µg/mL and 43 nM
67% | 55% | 32% | 86% | 60% | 42% | 0.022 µg/mL and 0.147 nM | 0.04 µg/mL | 0.02 µg/mL | binds | binds | binds | binds | binds | binds | binds | binds | 44% | 29% | 96% | humanized anti-CCR8 mAb 2-14 (antibody, human IgG1, kappa, V domains shown, Humanized, human IgG1 / kappa) VH: QVQLVQSGPEVVKPGASVKVSCKTSGYTFTEYTIHWVRQAPGQSLEWVGGINPNNGNTRYDQKFQGRVTITRDKSASTAYMELRSLTSEDTAVYYCARVARSSGSGPYAMDYWGQGTTVTVSS VL: DVVMTQSPLSLPVTLGDQASISCRCSQSLLHTNGDTYLHWYLQRPGQSPRLLIYKVSNRFSGVPDRFSGSGSGTDFTLKISRVEAEDVGVYFCSQSTHVPYTFGGGTKVEIKR | ADCC % Max lysis, HUT78 targets, NK cells Donor 3 (human CCR8 [8]): 15%; ADCC % Max lysis, HUT78 targets, NK cells Donor 4 (human CCR8 [8]): 16%; ADCC EC50, HUT78 targets, NK cells Donor 3 (human CCR8 [8]): 0.505 nM; ADCC EC50, HUT78 targets, NK cells Donor 4 (human CCR8 [8]): 0.573 nM
77% | 66% | 41% | 73% | 52% | 37% | 0.034 µg/mL and 0.227 nM | 0.04 µg/mL | 0.02 µg/mL | binds | binds | binds | binds | binds | binds | binds | binds | 44% | 36% | 88% | humanized anti-CCR8 mAb 2-15 (antibody, human IgG1, kappa, V domains shown, Humanized, human IgG1 / kappa) VH: QVQLQQSGPEVVKPGASVKVSCKTSGYTFTEYTIHWVRQSHGQSLEWVGGINPNNGNTRYDQKFKGRVTITIDKSSSTAYMELRSLTSEDTAVYYCARVARSSGSGPYAMDYWGQGTTVTVSS VL: DVVMTQSPLSLPVTLGDQASISCRCSQSLLHTNGDTYLHWYLQRPGQSPRLLIYKVSNRFSGVPDRFSGSGSGTDFTLKISRVEAEDVGVYFCSQSTHVPYTFGGGTKVEIKR | EC50 (human CCR8 [18]): 0.2 nM
